# Assays:
# [1] = target: T1, extracellular domain of the IL-4Rα (IL-4 binding protein), P24394; assay: biosensor (BIA2000), IL4BP biotinylated at Cys-206 on a streptavidin matrix, 25 C
# [2] = target: T1, extracellular domain of the IL-4Rα …; assay: biosensor (BIA2000), IL4BP on a streptavidin matrix, room temperature
# [3] = target: T1, extracellular domain of the IL-4Rα …; assay: biosensor (BIA2000), compared with MAR-IL4
# T1 sequence (P24394 26-232 limits assumed): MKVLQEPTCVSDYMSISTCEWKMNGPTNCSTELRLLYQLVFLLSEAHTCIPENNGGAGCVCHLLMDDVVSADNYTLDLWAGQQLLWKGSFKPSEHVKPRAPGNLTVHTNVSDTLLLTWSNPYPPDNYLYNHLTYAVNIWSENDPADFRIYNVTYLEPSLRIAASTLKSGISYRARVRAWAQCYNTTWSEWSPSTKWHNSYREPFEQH
Kd [1] [µM],Kd [2] [µM],fold increase in binding affinity against MAR-IL4 [3] [fold],Binder
5,,,RMKQLEKKVERCLKRLYRNEWEVIRLKKLVG (modifications not checked) [12CNMAR-IL4]
2160,2000,,RMKQLEKKVERLLKRNYRLENEVARLKKLVG (modifications not checked) [Model 2a]
5 to 10,,5,RMKQLEKKVERLLKRNYRLEWEVIRCKKLVG (modifications not checked) [26CMAR-IL4]
193,,,RMKQLEKKVERLLKRNYRLENEVIRLKKLVG (modifications not checked) [Model 2b]
26,,,RMKQLEKKVERLLKRNYRLEWEVIRLKKLVG (modifications not checked) [MAR-IL4]
106,100,,RMKQLEKKVERLLKRNYRLEWEVARLKKLVG (modifications not checked) [Model 2c]
5,,5,RMKQLEKKVERCLKRNYRLEWEVIRLKKLVG (modifications not checked) [12CMAR-IL4]
